In publication PMC6944315:
Where “and” joins values, the source holds several entries; their conditions need not be identical. Equal values may be shown once. Values belong to the substance of their own block, whether it stands above or below them.

Legend:
[1] = molecular target: Caldivirga maquilingensis type III sulfide:quinone oxidoreductase, wild type, His-tagged (Caldivirga maquilingensis IC-167); experiment: SEC
[2] = molecular target: CmSQR truncated 1 (T1), lacking the complete last C-terminal helix (Caldivirga maquilingensis IC-167); experiment: SEC
[3] = molecular target: CmSQR truncated 1 (T1), lacking the complete last C-terminal helix (Caldivirga maquilingensis IC-167); experiment: native gel or EMSA
[4] = molecular target: CmSQR truncated 2 (T2), lacking the last two C-terminal helices, His-tagged (Caldivirga maquilingensis IC-167); experiment: SEC
[5] = molecular target: CmSQR truncated 2 (T2), lacking the last two C-terminal helices, His-tagged (Caldivirga maquilingensis IC-167); experiment: native gel or EMSA
[6] = molecular target: CmSQR truncated 2 (T2), lacking the last two C-terminal helices, His-tagged (Caldivirga maquilingensis IC-167); experiment: cross-linking

stoichiometry N [1]: 2
Substance: Caldivirga maquilingensis type III sulfide:quinone oxidoreductase, wild type, His-tagged (enzyme)

stoichiometry N [2]: 2
stoichiometry N [3]: 2
Substance: CmSQR truncated 1 (T1), lacking the complete last C-terminal helix (domain or fragment)

stoichiometry N [4]: 2
stoichiometry N [5]: 2 and 3
stoichiometry N [6]: 2 and 3
Substance: CmSQR truncated 2 (T2), lacking the last two C-terminal helices, His-tagged (domain or fragment)
